Literature values, collected in PMC7134607.

Molecular target: SARS main protease (SARS coronavirus) (UniProt P0C6X7)

Substance: SARS main protease (from UniProt P0C6X7)
- Kd: 100 µM
